Measurements taken from FireProtDB (doi:10.1093/protein/gzt061).

B1: Limonene-1,2-epoxide hydrolase, Q9ZAG3 (parent)
chain: MTSKIEQPRWASKDSAAGAASTPDEKIVLEFMDALTSNDAAKLIEYFAEDTMYQNMPLPPAYGRDAVEQTLAGLFTVMSIDAVETFHIGSSNGLVYTERVDVLRALPTGKSYNLSILGVFQLTEGKITGWRDYFDLREFEEAVDLPLRG

Variants of: B1
Details: Rhodococcus erythropolis; pH 7.1; Thermal; Fluorescence; Potassium phosphate 50mM; transition: 2; reversible: no; structure 1NWW; whole UniProt chain shown

For D24R, the Tm was 45 °C and the “change of melting temperature, mutant - wild type (higher = more stable)” value (shortened to “change of melting temperature, mutant”) was -3.8 °C.

With D24C L122C the Tm was 36 °C and the “change of melting temperature, mutant” value was -12.8 °C.

With E45R the Tm was 47.8 °C and the “change of melting temperature, mutant” value was -1 °C.

For E45K, the Tm was 50.8 °C and the “change of melting temperature, mutant” value was 2 °C.

For M32C V83C, the Tm was 44 °C and the “change of melting temperature, mutant” value was -4.8 °C.

For S15K, the Tm was 48.5 °C and the “change of melting temperature, mutant” value was -0.3 °C.

With S15P the Tm was 49 °C and the “change of melting temperature, mutant” value was 0.2 °C.

In the case of E68Q, the Tm is reported as 49.3 °C and the “change of melting temperature, mutant” value is reported as 0.5 °C.

For S12R, the Tm was 49 °C and the “change of melting temperature, mutant” value was 0.2 °C.

In the case of A20P, the Tm is reported as 46.7 °C and the “change of melting temperature, mutant” value is reported as -2.1 °C.

For A19K, the Tm was 51.3 °C and the “change of melting temperature, mutant” value was 2.5 °C.

With K4C A82C the Tm was 59 °C and the “change of melting temperature, mutant” value was 10.2 °C.

With L94F the Tm was 48.8 °C and the “change of melting temperature, mutant” value was 0 °C.

With A72R the Tm was 47 °C and the “change of melting temperature, mutant” value was -1.8 °C.

In the case of L106R, the Tm is reported as 46.5 °C and the “change of melting temperature, mutant” value is reported as -2.3 °C.

In the case of A105C V143C, the Tm is reported as 46.5 °C and the “change of melting temperature, mutant” value is reported as -2.3 °C.

With M52C G129C the Tm was 40 °C and the “change of melting temperature, mutant” value was -8.8 °C.

With N92K the Tm was 56.1 °C and the “change of melting temperature, mutant” value was 7.3 °C.

With N92R the Tm was 50.6 °C and the “change of melting temperature, mutant” value was 1.8 °C.

In the case of V102C, the Tm is reported as 62 °C and the “change of melting temperature, mutant” value is reported as 13.2 °C.

In the case of K42R, the Tm is reported as 47.5 °C and the “change of melting temperature, mutant” value is reported as -1.3 °C.

With T85L the Tm was 51.3 °C and the “change of melting temperature, mutant” value was 2.5 °C.

For T85I, the Tm was 54.6 °C and the “change of melting temperature, mutant” value was 5.8 °C.

For T85V, the Tm was 55.6 °C and the “change of melting temperature, mutant” value was 6.8 °C.

In the case of T85P, the Tm is reported as 42.8 °C and the “change of melting temperature, mutant” value is reported as -6 °C.

In the case of I27M, the Tm is reported as 47 °C and the “change of melting temperature, mutant” value is reported as -1.8 °C.

With D65E the Tm was 49.3 °C and the “change of melting temperature, mutant” value was 0.5 °C.

For A48C K126C, the Tm was 53 °C and the “change of melting temperature, mutant” value was 4.2 °C.

For Q121V, the Tm was 38.8 °C and the “change of melting temperature, mutant” value was -10 °C.

For G18N, the Tm was 49.1 °C and the “change of melting temperature, mutant” value was 0.3 °C.

In the case of S111R, the Tm is reported as 48.8 °C and the “change of melting temperature, mutant” value is reported as 0 °C.

In the case of S111K, the Tm is reported as 46.5 °C and the “change of melting temperature, mutant” value is reported as -2.3 °C.

With Y112C A142C the Tm was 56 °C and the “change of melting temperature, mutant” value was 7.2 °C.

In the case of K13P, the Tm is reported as 44.8 °C and the “change of melting temperature, mutant” value is reported as -4 °C.

For Q69R, the Tm was 49.1 °C and the “change of melting temperature, mutant” value was 0.3 °C.

With K110R the Tm was 47.3 °C and the “change of melting temperature, mutant” value was -1.5 °C.

In the case of A17C N92C, the Tm is reported as 64 °C and the “change of melting temperature, mutant” value is reported as 15.2 °C.

With A41S the Tm was 49.1 °C and the “change of melting temperature, mutant” value was 0.3 °C.

In the case of A41R, the Tm is reported as 48.8 °C and the “change of melting temperature, mutant” value is reported as 0 °C.

In the case of G89C S91C, the Tm is reported as 66 °C and the “change of melting temperature, mutant” value is reported as 17.2 °C.

For P57C D135C, the Tm was 35 °C and the “change of melting temperature, mutant” value was -13.8 °C.

In the case of E124R, the Tm is reported as 46 °C and the “change of melting temperature, mutant” value is reported as -2.8 °C.

With E124K the Tm was 47.5 °C and the “change of melting temperature, mutant” value was -1.3 °C.

With E124D the Tm was 50.1 °C and the “change of melting temperature, mutant” value was 1.3 °C.

With Y96F the Tm was 51.6 °C and the “change of melting temperature, mutant” value was 2.8 °C.

For A66P, the Tm was 49.6 °C and the “change of melting temperature, mutant” value was 0.8 °C.

In the case of A17C L94C, the Tm is reported as 56 °C and the “change of melting temperature, mutant” value is reported as 7.2 °C.

For I127F, the Tm was 46.3 °C and the “change of melting temperature, mutant” value was -2.5 °C.

With I5C E84C the Tm was 64 °C and the “change of melting temperature, mutant” value was 15.2 °C.

In the case of D50P, the Tm is reported as 42.8 °C and the “change of melting temperature, mutant” value is reported as -6 °C.

In the case of T76K, the Tm is reported as 50.3 °C and the “change of melting temperature, mutant” value is reported as 1.5 °C.

For A16R, the Tm was 48.3 °C and the “change of melting temperature, mutant” value was -0.5 °C.

In the case of I44C E68C, the Tm is reported as 56 °C and the “change of melting temperature, mutant” value is reported as 7.2 °C.

With Y62W the Tm was 48.8 °C and the “change of melting temperature, mutant” value was 0 °C.

For A142R, the Tm was 46 °C and the “change of melting temperature, mutant” value was -2.8 °C.

For L122F, the Tm was 41.3 °C and the “change of melting temperature, mutant” value was -7.5 °C.

For D33K, the Tm was 47.3 °C and the “change of melting temperature, mutant” value was -1.5 °C.

In the case of D33R, the Tm is reported as 46.5 °C and the “change of melting temperature, mutant” value is reported as -2.3 °C.
